Laboratory results as given in the supplement of paper PMC9428881.
± gives the standard error.

Assay: background-corrected fluorescence of 3'-dye-labeled ssDNA relative to brightest sequence (3'-GCGCG) (fraction); higher = brighter dye fluorescence (less quenching)
Experimental: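 Single-stranded DNA is synthesized in situ on glass microarrays by 5'->3' photolithographic synthesis, with a Cy3 or Cy5 phosphoramidite coupled at the 3' end next to all 1024 permuted pentamers P1-P5. The construct is 5'-T5-(ACGT minus P5..P1 trinucleotides)-T15-P5P4P3P2P1-dye-3'; the dye is a 3' terminal modification, not part of the sequence. Arrays were scanned at 532 nm (Cy3) or 635 nm (Cy5), background from unlabeled oligos was subtracted, and values are averaged over 10 replicate features per array and at least 3 independent syntheses.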

Row | Sequence | background-corrected fluorescence (dye: Cy3 (3' terminal)) | background-corrected fluorescence (dye: Cy5 (3' terminal))
1 | TTTTTTGCTGCGCATCAGCATTTTTTTTTTTTTTTAATGT [TGTAA] | 0.616 ± 0.033 | 0.507 ± 0.031
2 | TTTTTTGATCATGATGATGATTTTTTTTTTTTTTTCGCCC [CCCGC] | 0.406 ± 0.032 | 0.308 ± 0.055
3 | TTTTTTGCTGCTGCTCATGCTTTTTTTTTTTTTTTAAAGA [AGAAA] | 0.693 ± 0.03 | 0.568 ± 0.03
4 | TTTTTTGCGCATGATGATGATTTTTTTTTTTTTTTATCCC [CCCTA] | 0.369 ± 0.026 | 0.247 ± 0.016
5 | TTTTTTGATGAGCATCATCATTTTTTTTTTTTTTTCCTGG [GGTCC] | 0.557 ± 0.023 | 0.47 ± 0.054
6 | TTTTTTGCTGAGCATGCTGATTTTTTTTTTTTTTTACTAC [CATCA] | 0.477 ± 0.017 | 0.328 ± 0.035
7 | TTTTTGCATGCTCAGCATCATTTTTTTTTTTTTTTTAGTG [GTGAT] | 0.541 ± 0.027 | 0.455 ± 0.053
8 | TTTTTTGATGATGCTGCTGATTTTTTTTTTTTTTTCCAAC [CAACC] | 0.403 ± 0.021 | 0.291 ± 0.02
9 | TTTTTTGATGCGCATGCGCATTTTTTTTTTTTTTTCATAT [TATAC] | 0.501 ± 0.036 | 0.397 ± 0.025
10 | TTTTTTGATGAGCATGCTGCTTTTTTTTTTTTTTTCCTAA [AATCC] | 0.538 ± 0.015 | 0.432 ± 0.031
11 | TTTTTTGATGATGCTCATGATTTTTTTTTTTTTTTCCAGC [CGACC] | 0.503 ± 0.036 | 0.395 ± 0.02
12 | TTTTTGCATCATCATGATGCTTTTTTTTTTTTTTTTGGCA [ACGGT] | 0.562 ± 0.015 | 0.472 ± 0.032
13 | TTTTTTGATGCTCATGCTGATTTTTTTTTTTTTTTCAGAC | 0.451 ± 0.024 | 0.372 ± 0.017
14 | TTTTTTGATCAGCATGATGCTTTTTTTTTTTTTTTCGTCA [ACTGC] | 0.547 ± 0.03 | 0.378 ± 0.032
15 | TTTTTTGATGAGCAGCATCATTTTTTTTTTTTTTTCCTTG [GTTCC] | 0.547 ± 0.021 | 0.378 ± 0.025
16 | TTTTTTGATGATCATGCTGATTTTTTTTTTTTTTTCCGAC [CAGCC] | 0.464 ± 0.024 | 0.374 ± 0.068
17 | TTTTTTCATCATCATGCTCATTTTTTTTTTTTTTTGGGAG [GAGGG] | 0.614 ± 0.037 | 0.478 ± 0.026
18 | TTTTTTGATGCGCATGATCATTTTTTTTTTTTTTTCATCG [GCTAC] | 0.543 ± 0.018 | 0.375 ± 0.026
19 | TTTTTTGATGCTGATGCTGCTTTTTTTTTTTTTTTCACAA [AACAC] | 0.562 ± 0.022 | 0.411 ± 0.021
20 | TTTTTTGAGCATCATCAGCATTTTTTTTTTTTTTTCTGGT [TGGTC] | 0.653 ± 0.018 | 0.557 ± 0.035
21 | TTTTTTGAGCAGCATGATGATTTTTTTTTTTTTTTCTTCC [CCTTC] | 0.345 ± 0.016 | 0.229 ± 0.015
22 | TTTTTTGCTCAGCATCATCATTTTTTTTTTTTTTTAGTGG [GGTGA] | 0.625 ± 0.034 | 0.546 ± 0.076
23 | TTTTTTGCTGCTCATGCTCATTTTTTTTTTTTTTTAAGAG [GAGAA] | 0.607 ± 0.036 | 0.489 ± 0.086
24 | TTTTTTCATGATCATGCTGCTTTTTTTTTTTTTTTGCGAA [AAGCG] | 0.666 ± 0.028 | 0.525 ± 0.028
25 | TTTTTTCATCATGATGCGCATTTTTTTTTTTTTTTGGCAT [TACGG] | 0.603 ± 0.011 | 0.406 ± 0.025
26 | TTTTTTCATGATGATGATCATTTTTTTTTTTTTTTGCCCG | 0.488 ± 0.0067 | 0.394 ± 0.045

Row | Sequence | background-corrected fluorescence (dye: Cy3 (3' terminal)) | background-corrected fluorescence (dye: Cy5 (3' terminal))
27 | TTTTTGCATGCTCATGATGATTTTTTTTTTTTTTTTAGCC [CCGAT] | 0.425 ± 0.017 | 0.311 ± 0.015
28 | TTTTTGCATGCTGATGATCATTTTTTTTTTTTTTTTACCG [GCCAT] | 0.55 ± 0.026 | 0.439 ± 0.027
29 | TTTTTTGAGCATCATGATGATTTTTTTTTTTTTTTCTGCC [CCGTC] | 0.402 ± 0.027 | 0.312 ± 0.018
30 | TTTTTTGATGCGCAGCAGCATTTTTTTTTTTTTTTCATTT [TTTAC] | 0.523 ± 0.022 | 0.38 ± 0.032
31 | TTTTTTCATGCGCATGCTGCTTTTTTTTTTTTTTTGATAA [AATAG] | 0.587 ± 0.042 | 0.452 ± 0.031
32 | TTTTTTGAGCATGATCATCATTTTTTTTTTTTTTTCTCGG [GGCTC] | 0.641 ± 0.034 | 0.508 ± 0.037
33 | TTTTTGCATCAGCATCATGATTTTTTTTTTTTTTTTGTGC [CGTGT] | 0.494 ± 0.0099 | 0.402 ± 0.027
34 | TTTTTTCATGATGAGCATGCTTTTTTTTTTTTTTTGCCTA [ATCCG] | 0.493 ± 0.016 | 0.366 ± 0.039
35 | TTTTTTGATCAGCATCATGCTTTTTTTTTTTTTTTCGTGA [AGTGC] | 0.634 ± 0.016 | 0.531 ± 0.037
36 | TTTTTTGCTGAGCATGATGCTTTTTTTTTTTTTTTACTCA | 0.482 ± 0.028 | 0.346 ± 0.028
37 | TTTTTTGAGCATGATGATCATTTTTTTTTTTTTTTCTCCG [GCCTC] | 0.531 ± 0.02 | 0.426 ± 0.028
38 | TTTTTTGATCATGCTGCTGATTTTTTTTTTTTTTTCGAAC [CAAGC] | 0.48 ± 0.039 | 0.366 ± 0.022
39 | TTTTTTCATGCTGCTCAGCATTTTTTTTTTTTTTTGAAGT | 0.661 ± 0.012 | 0.529 ± 0.056
40 | TTTTTTCATGATGCTGCTCATTTTTTTTTTTTTTTGCAAG [GAACG] | 0.503 ± 0.04 | 0.422 ± 0.029
41 | TTTTTTGATCATCATCATGATTTTTTTTTTTTTTTCGGGC | 0.576 ± 0.032 | 0.487 ± 0.024
42 | TTTTTTCATGCTGCTCATGCTTTTTTTTTTTTTTTGAAGA [AGAAG] | 0.6356 ± 0.0052 | 0.582 ± 0.029
43 | TTTTTTGCTCATCATGATGCTTTTTTTTTTTTTTTAGGCA [ACGGA] | 0.584 ± 0.0074 | 0.463 ± 0.017
44 | TTTTTGCATCATCATCAGCATTTTTTTTTTTTTTTTGGGT | 0.686 ± 0.028 | 0.586 ± 0.044
45 | TTTTTTCATCAGCAGCATCATTTTTTTTTTTTTTTGGTTG [GTTGG] | 0.524 ± 0.02 | 0.392 ± 0.022
46 | TTTTTTCAGCATGCTGAGCATTTTTTTTTTTTTTTGTACT [TCATG] | 0.476 ± 0.0074 | 0.399 ± 0.025
47 | TTTTTTCATCATCATGATGCTTTTTTTTTTTTTTTGGGCA [ACGGG] | 0.565 ± 0.022 | 0.505 ± 0.024
48 | TTTTTTGCTGATGATCAGCATTTTTTTTTTTTTTTACCGT [TGCCA] | 0.624 ± 0.025 | 0.479 ± 0.034
49 | TTTTTTGCTGAGCATCATGCTTTTTTTTTTTTTTTACTGA [AGTCA] | 0.654 ± 0.04 | 0.475 ± 0.024
50 | TTTTTTGCTCAGCATCATGATTTTTTTTTTTTTTTAGTGC [CGTGA] | 0.518 ± 0.047 | 0.405 ± 0.024
51 | TTTTTTCATGCTGCGCAGCATTTTTTTTTTTTTTTGAATT [TTAAG] | 0.5465 ± 0.0052 | 0.382 ± 0.03
